Usually Km stands for the substrate concentration at which the rate is half of its maximum.

This is an account of results in publication PMC5838249, “The Apicomplexa-specific glucosamine-6-phosphate N-acetyltransferase gene family encodes a key enzyme for glycoconjugate synthesis with potential as therapeutic target” (Scientific Reports, 2018).

Substrate in this data set: CC(=O)SCCNC(=O)CCNC(=O)[C@H](O)C(C)(C)COP(=O)(O)OP(=O)(O)OC[C@H]1O[C@@H](n2cnc3c(N)ncnc32)[C@H](O)[C@@H]1OP(=O)(O)O
The data set is described as follows: GNA1 kinetic assay, Michaelis-Menten. It counts as biochemical, Cryptosporidium parvum. Conditions: co-substrate GlcN-6P.

B1: CpGNA1 (Cryptosporidium parvum Iowa II) (protein)
chain: MISSFEVRKATIDDYFELRNLICDVTRCTETLSREQAEERFRYNTYHPYCLVDTENGRIVGYAGFYIIPHLGRKNDSRIEHVIISKEYRNRGLGRLLCKQIIEDAKNKFNCGRIDLTVESHIAKKLYSSLEFEKVNTEVMRNSFLDLTPKSD
For the protein B1, the Michaelis constant (Km) is 241.7 ± 35.3 µM.
